Results as given in the RNAGym collection of RNA variant scans (doi:10.7554/elife.80360).

B1: Hammerhead Ribozyme (parent)
chain: ACCGGAUGUGCUUUCCGGUCUGAUGAGUCCGUGAGGACGAAACAG

Variants of: B1
Assay: self-cleavage, relative activity (ratio to wild type); higher = more cleavage; co-transcriptional

Point of comparison: ACCGGAUGUGCUUUCCGGGCUGAUGAGUCCGUGAGGACGAACCAG, self-cleavage 0.424. Against it:
- ACCGGAUGUGCUUUCCGGCCUGACGAGUCCGUGAGGACGAAACAG — higher, 0.682
- ACCGGAUGUGCUUUCCGGCCUGAGGAGUCCGUGAGGACGAAACAG — higher, 0.552
- ACCGGAUGUGCUUUCCGGCCUGAAGAGUCCGUGAGGACGAAACAG — higher, 0.776
- ACCGGAUGUGCUUUCCGGCCUGAUGAGUCCGUGAGGACGAAACAU — higher, 0.439
- ACCGGAUGUGCUUUCCGGCCUGAUGAGUCCGUGAGGACGAAACAA — lower, 0.384
- ACCGGAUGUGCUUUCCGGCCUGAUGAGUCCGUGAGGACGAAACAC — higher, 0.519
- ACCGGAUGUGCUUUCCGGGCUGAUGAGUCCGUCAGGACGAAACAG — higher, 0.426
- ACCGGAUGUGCUUUCCGGGCUGAUGAGUCCGUAAGGACGAAACAG — higher, 0.551
- ACCGGAUGUGCUUUCCGGGCUGAUGAGUCCGUUAGGACGAAACAG — lower, 0.411
- ACCGGAUGUGCUUUCCGGGCUAAUGAGUCCGUGAGGACGAAACAG — lower, 0.394
- ACCGGAUGUGCUUUCCGGGCUCAUGAGUCCGUGAGGACGAAACAG — lower, 0.308
- ACCGGAUGUGCUUUCCGGGCUUAUGAGUCCGUGAGGACGAAACAG — lower, 0.304
- ACCGGAUGUGCUUUCCGGGCUGAUGAGUCCGUGAGGACAAAACAG — lower, 0.378
- ACCGGAUGUGCUUUCCGGGCUGAUGAGUCCGUGAGGACUAAACAG — lower, 0.305
- ACCGGAUGUGCUUUCCGGGCUGAUGAGUCCGUGAGGACCAAACAG — lower, 0.297
- ACCGGAUGUGCUUUCCGGGCUGAUGAGUCCGUGAGGACGAAACUG — lower, 0.286
- ACCGGAUGUGCUUUCCGGGCUGAUGAGUCCGUGAGGACGAAACCG — lower, 0.361
- ACCGGAUGUGCUUUCCGGGCUGAUGAGUCCGUGAGGACGAAACGG — higher, 0.623
- ACCGGAUGUGCUUUCCGGGCUGAUGAGUCGGUGAGGACGAAACAG — lower, 0.41
- ACCGGAUGUGCUUUCCGGGCUGAUGAGUCAGUGAGGACGAAACAG — lower, 0.376
- ACCGGAUGUGCUUUCCGGGCUGAUGAGUCUGUGAGGACGAAACAG — lower, 0.399
- ACCGGAUGUGCUUUCCGGGCUGCUGAGUCCGUGAGGACGAAACAG — lower, 0.346
- ACCGGAUGUGCUUUCCGGGCUGUUGAGUCCGUGAGGACGAAACAG — lower, 0.23
- ACCGGAUGUGCUUUCCGGGCUGGUGAGUCCGUGAGGACGAAACAG — lower, 0.3
- ACCGGAUGUGCUUUCCGGGCUGAUGAGUCCGUGGGGACGAAACAG — lower, 0.345
- ACCGGAUGUGCUUUCCGGGCUGAUGAGUCCGUGCGGACGAAACAG — lower, 0.349
- ACCGGAUGUGCUUUCCGGGCUGAUGAGUCCGUGUGGACGAAACAG — lower, 0.289
- ACCGGAUGUGCUUUCCGGCCUGAUCAGUCCGUGAGGACGAAACAG — lower, 0.378
- ACCGGAUGUGCUUUCCGGCCUGAUAAGUCCGUGAGGACGAAACAG — lower, 0.312
- ACCGGAUGUGCUUUCCGGCCUGAUUAGUCCGUGAGGACGAAACAG — lower, 0.273
- ACCGGAUGUGCUUUCCGGGCUGAUGAGUCCGUGAGGACGACACAG — lower, 0.327
- ACCGGAUGUGCUUUCCGGGCUGAUGAGUCCGUGAGGACGAUACAG — lower, 0.342
- ACCGGAUGUGCUUUCCGGGCUGAUGAGUCCGUGAGGACGAGACAG — lower, 0.345
- ACCGGAUGUGCUUUCCGGCCUGAUGAGUCCCUGAGGACGAAACAG — higher, 0.657
- ACCGGAUGUGCUUUCCGGCCUGAUGAGUCCUUGAGGACGAAACAG — higher, 0.789
- ACCGGAUGUGCUUUCCGGCCUGAUGAGUCCAUGAGGACGAAACAG — higher, 0.967
- ACCGGAUGUGCUUUCCGGCCUGAUGAGUCCGUGAGGACGAAAUAG — lower, 0.376
- ACCGGAUGUGCUUUCCGGCCUGAUGAGUCCGUGAGGACGAAAAAG — lower, 0.284
- ACCGGAUGUGCUUUCCGGCCUGAUGAGUCCGUGAGGACGAAAGAG — lower, 0.393
- ACCGGAUGUGCUUUCCGGCCUGAUGAGUCCGGGAGGACGAAACAG — higher, 0.642
- ACCGGAUGUGCUUUCCGGCCUGAUGAGUCCGCGAGGACGAAACAG — higher, 0.565
- ACCGGAUGUGCUUUCCGGCCUGAUGAGUCCGAGAGGACGAAACAG — higher, 0.551
- ACCGGAUGUGCUUUCCGGCCUGAUGAGUCCGUUAGGACGAAACAG — higher, 0.792
- ACCGGAUGUGCUUUCCGGCCUGAUGAGUCCGUCAGGACGAAACAG — lower, 0.38
- ACCGGAUGUGCUUUCCGGCCUGAUGAGUCCGUAAGGACGAAACAG — higher, 0.579
- ACCGGAUGUGCUUUCCGGGCUGAUGAGUCCAUGAGGACGAAACAG — higher, 0.553
- ACCGGAUGUGCUUUCCGGGCUGAUGAGUCCCUGAGGACGAAACAG — higher, 0.431
- ACCGGAUGUGCUUUCCGGGCUGAUGAGUCCUUGAGGACGAAACAG — higher, 0.451
- ACCGGAUGUGCUUUCCGGGCUGAUGAGUCCGUGAGGACGAAACAG — higher, 0.437
- ACCGGAUGUGCUUUCCGGGCUGAUGAGUCCGUGAGGAGGAAACAG — lower, 0.354
- ACCGGAUGUGCUUUCCGGGCUGAUGAGUCCGUGAGGAAGAAACAG — lower, 0.324
- ACCGGAUGUGCUUUCCGGGCUGAUGAGUCCGUGAGGAUGAAACAG — lower, 0.364
- ACCGGAUGUGCUUUCCGGGCUGAUGAGUCCGUGAGUACGAAACAG — lower, 0.301
- ACCGGAUGUGCUUUCCGGGCUGAUGAGUCCGUGAGCACGAAACAG — lower, 0.351
- ACCGGAUGUGCUUUCCGGGCUGAUGAGUCCGUGAGAACGAAACAG — lower, 0.38
- ACCGGAUGUGCUUUCCGGGCUGAUGAGUUCGUGAGGACGAAACAG — lower, 0.316
- ACCGGAUGUGCUUUCCGGGCUGAUGAGUACGUGAGGACGAAACAG — lower, 0.257
- ACCGGAUGUGCUUUCCGGGCUGAUGAGUGCGUGAGGACGAAACAG — lower, 0.307
- ACCGGAUGUGCUUUCCGGGAUGAUGAGUCCGUGAGGACGAAACAG — lower, 0.316
- ACCGGAUGUGCUUUCCGGGUUGAUGAGUCCGUGAGGACGAAACAG — lower, 0.306
- ACCGGAUGUGCUUUCCGGGGUGAUGAGUCCGUGAGGACGAAACAG — lower, 0.307
- ACCGGAUGUGCUUUCCGGGCUGAUGGGUCCGUGAGGACGAAACAG — lower, 0.319
- ACCGGAUGUGCUUUCCGGGCUGAUGUGUCCGUGAGGACGAAACAG — lower, 0.332
- ACCGGAUGUGCUUUCCGGGCUGAUGCGUCCGUGAGGACGAAACAG — lower, 0.323
- ACCGGAUGUGCUUUCCGGCCUAAUGAGUCCGUGAGGACGAAACAG — lower, 0.282
- ACCGGAUGUGCUUUCCGGCCUCAUGAGUCCGUGAGGACGAAACAG — lower, 0.323
- ACCGGAUGUGCUUUCCGGCCUUAUGAGUCCGUGAGGACGAAACAG — lower, 0.267
- ACCGGAUGUGCUUUCCGGCCUGAUGAGUCCGUGAAGACGAAACAG — higher, 0.64
- ACCGGAUGUGCUUUCCGGCCUGAUGAGUCCGUGACGACGAAACAG — higher, 0.492
- ACCGGAUGUGCUUUCCGGCCUGAUGAGUCCGUGAUGACGAAACAG — higher, 0.465
- ACCGGAUGUGCUUUCCGGCCUGAUGAGUCCGUGAGUACGAAACAG — higher, 0.443
- ACCGGAUGUGCUUUCCGGCCUGAUGAGUCCGUGAGAACGAAACAG — higher, 0.475
- ACCGGAUGUGCUUUCCGGCCUGAUGAGUCCGUGAGCACGAAACAG — higher, 0.427
- ACCGGAUGUGCUUUCCGGGCUGAUGAGUCCGUGAUGACGAAACAG — lower, 0.397
- ACCGGAUGUGCUUUCCGGGCUGAUGAGUCCGUGAAGACGAAACAG — lower, 0.282
- ACCGGAUGUGCUUUCCGGGCUGAUGAGUCCGUGACGACGAAACAG — lower, 0.308
- ACCGGAUGUGCUUUCCGGGCUGAUGAGUCCGUGAGGACGAAAUAG — lower, 0.336
- ACCGGAUGUGCUUUCCGGGCUGAUGAGUCCGUGAGGACGAAAAAG — lower, 0.319
- ACCGGAUGUGCUUUCCGGGCUGAUGAGUCCGUGAGGACGAAAGAG — lower, 0.321
- ACCGGAUGUGCUUUCCGGGCUGAUGAGUCCGUGAGGACGAAGCAG — lower, 0.317
- ACCGGAUGUGCUUUCCGGGCUGAUGAGUCCGUGAGGACGAAUCAG — lower, 0.345
- ACCGGAUGUGCUUUCCGGGCUGAUUAGUCCGUGAGGACGAAACAG — lower, 0.37
- ACCGGAUGUGCUUUCCGGGCUGAUCAGUCCGUGAGGACGAAACAG — lower, 0.359
- ACCGGAUGUGCUUUCCGGGCUGAUAAGUCCGUGAGGACGAAACAG — lower, 0.275
- ACCGGAUGUGCUUUCCGGGCUGAUGAAUCCGUGAGGACGAAACAG — lower, 0.301
- ACCGGAUGUGCUUUCCGGGCUGAUGACUCCGUGAGGACGAAACAG — lower, 0.288
- ACCGGAUGUGCUUUCCGGGCUGAUGAUUCCGUGAGGACGAAACAG — lower, 0.292
- ACCGGAUGUGCUUUCCGGCCUGAUGAGUCCGUGAGGAUGAAACAG — lower, 0.36
- ACCGGAUGUGCUUUCCGGCCUGAUGAGCCCGUGAGGACGAAACAG — higher, 0.572
- ACCGGAUGUGCUUUCCGGCCUGAUGAGGCCGUGAGGACGAAACAG — higher, 0.435
- ACCGGAUGUGCUUUCCGGCCUGAUGAGACCGUGAGGACGAAACAG — higher, 0.524
- ACCGGAUGUGCUUUCCGGCCUGAUGAGUCCGUGAGGACCAAACAG — lower, 0.251
- ACCGGAUGUGCUUUCCGGCCUGAUGAGUCCGUGAGGACUAAACAG — lower, 0.271
- ACCGGAUGUGCUUUCCGGCCUGAUGAGUCCGUGAGGACAAAACAG — lower, 0.282
- ACCGGAUGUGCUUUCCGGGCUGAAGAGUCCGUGAGGACGAAACAG — higher, 0.472
- ACCGGAUGUGCUUUCCGGGCUGAUGAGUCCGUGAGGACGUAACAG — lower, 0.323
- ACCGGAUGUGCUUUCCGGGCUGAUGAGUCCGUGAGGACGGAACAG — lower, 0.384
- ACCGGAUGUGCUUUCCGGGCUGAUGAGUCCGUGAGGACGCAACAG — lower, 0.294
- ACCGGAUGUGCUUUCCGGGCAGAUGAGUCCGUGAGGACGAAACAG — lower, 0.323
- ACCGGAUGUGCUUUCCGGGCCGAUGAGUCCGUGAGGACGAAACAG — higher, 0.471
- ACCGGAUGUGCUUUCCGGGCGGAUGAGUCCGUGAGGACGAAACAG — lower, 0.328
- ACCGGAUGUGCUUUCCGGGCUGAUGAGUCCGUGAGGACGAAACAC — lower, 0.312
- ACCGGAUGUGCUUUCCGGGCUGAUGAGUCCGUGAGGACGAAACAU — lower, 0.389
- ACCGGAUGUGCUUUCCGGGCUGAUGAGUCCGUGAGGACGAAACAA — the same, 0.424
- ACCGGAUGUGCUUUCCGGCCGGAUGAGUCCGUGAGGACGAAACAG — lower, 0.221
- ACCGGAUGUGCUUUCCGGCCAGAUGAGUCCGUGAGGACGAAACAG — lower, 0.416
- ACCGGAUGUGCUUUCCGGCCCGAUGAGUCCGUGAGGACGAAACAG — lower, 0.251
- ACCGGAUGUGCUUUCCGGCCUGAUGAUUCCGUGAGGACGAAACAG — lower, 0.311
- ACCGGAUGUGCUUUCCGGCCUGAUGAAUCCGUGAGGACGAAACAG — lower, 0.382
- ACCGGAUGUGCUUUCCGGCCUGAUGACUCCGUGAGGACGAAACAG — lower, 0.308
- ACCGGAUGUGCUUUCCGGGCUGAUGAGUCCGUGAGGCCGAAACAG — lower, 0.331
- ACCGGAUGUGCUUUCCGGGCUGAUGAGUCCGUGAGGUCGAAACAG — lower, 0.339
- ACCGGAUGUGCUUUCCGGGCUGAUGAGUCCGUGAGGGCGAAACAG — lower, 0.3
